First the molecules themselves.
B1: FTL004-hu-6 (antibody, human IgG1, kappa)
heavy: not shown
light: DIQLTQSPSSLSASVGDRVTITCQASESVDNFGITFMHWYQQKPGKAPKLLIYRASNLETGVPSRFSGSGSRTDFTFTISSLQPEDIATYYCQQSSKDPRTFGQGTKLEIKRTVAAPSVFIFPPSDEQLKSGTASVVCLLNNFYPREAKVQWKVDNALQSGNSQESVTEQDSKDSTYSLSSTLTLSKADYEKHKVYACEVTHQGLSSPVTKSFNRGEC
notes: Fc before engineering; also called FLT004-hu-6; FTL004-hum-6
B2: FTL004-hu-7 (antibody, human IgG1, kappa)
heavy: not shown
light: DIVLTQSPASLAVSPGQRATITCRASESVDNFGITFMHWYQQKPGQPPKLLIYRASNLESGVPARFSGSGSRTDFTLTINPVEANDTANYYCQQSSKDPRTFGQGTKLEIKRTVAAPSVFIFPPSDEQLKSGTASVVCLLNNFYPREAKVQWKVDNALQSGNSQESVTEQDSKDSTYSLSSTLTLSKADYEKHKVYACEVTHQGLSSPVTKSFNRGEC
notes: Fc before engineering; also called FLT004-hu-7; FTL004-hum-7
B3: FTL004-hu-8 (antibody, human IgG1, kappa, V domains shown)
VH: QVQLVQSGAEVKKPGASVKVSCKASGYTFTDYNVHWIRQAPGQGLEWIGYFYPRNGATHYAQKFQGRVTMTVDTSTSTAYMELSSLRSEDTAVYYCARGETPGTFPYWGQGTLVTVSS
VL: DIVLTQSPASLAVSPGQRATITCRASESVDNFGITFMHWYQQKPGQPPKLLIYRASNLESGVPARFSGSGSRTDFTLTINPVEANDTANYYCQQSSKDPRTFGQGTKLEIKR
notes: also called FLT004-hu-8; FTL004-hum-8
B4: FTL004-hu-13 (antibody, human IgG1, kappa, V domains shown)
VH: EVQLVQSGAEVKKPGATVKISCKASGYTFTDYNVHWIQQAPGKGLEWIGYFYPRNGATHYNQKFTGRATLTADTSTDTAYMEISSLRSEDTAVYFCARGETPGTFPYWGQGTLVTVSS
VL: B3 VL
notes: also called FLT004-hu-13; FTL004-hum-13
B5: FTL004-hu-1 (antibody, human IgG1, kappa)
heavy: not shown
light: B2 light
notes: human IgG1 type constant regions, Fc before engineering; also called FLT004-hu-1; FTL004-hum-1
B6: FTL004-hu-9 (antibody, human IgG1, kappa, V domains shown)
VH: B3 VH with A61N, Q65T, V68A, M70L, L83I, Y95F
VL: EIVLTQSPATLSLSPGERATLSCRASESVDNFGITFMHWYQQKPGQAPRLLIYRASNLESGIPARFSGSGSRTDFTLTISSLEPEDFAVYYCQQSSKDPRTFGQGTKLEIKR
notes: also called FLT004-hu-9; FTL004-hum-9
B7: FTL004-hu-4 (antibody, human IgG1, kappa, V domains shown)
VH: QVQLVQSGSELKKPGASVKVSCKASGYTFTDYNVHWIRQAPGQGLEWIGYFYPRNGATHYAQGFTGRAVLSADTSVSTAYLQISSLKAEDTAVYYCARGETPGTFPYWGQGTLVTVSS
VL: B6 VL
notes: also called FLT004-hu-4; FTL004-hum-4
B8: FTL004-hu-16 (antibody, human IgG1, kappa, V domains shown)
VH: B4 VH with N61A, Q62E, T65Q, A68V, I83L, F95Y
VL: B6 VL
notes: also called FLT004-hu-16; FTL004-hum-16
B9: FTL004-hu-11 (antibody, human IgG1, kappa, V domains shown)
VH: B3 VH with A61N, Q65T, V68A, M70L, L83I, Y95F
VL: DIQLTQSPSSLSASVGDRVTITCRASESVDNFGITFMHWYQQKPGKAPKLLIYRASNLESGVPSRFSGSGSRTDFTLTISSLQPEDFATYYCQQSSKDPRTFGQGTKLEIKR
notes: also called FLT004-hu-11; FTL004-hum-11
B10: FTL004-hu-17 (antibody, human IgG1, kappa, V domains shown)
VH: B4 VH
VL: B9 VL
notes: also called FLT004-hu-17; FTL004-hum-17
B11: FTL004-hu-5 (antibody, human IgG1, kappa, V domains shown)
VH: B7 VH with A61N, G63K, Y95F
VL: B9 VL
notes: also called FLT004-hu-5; FTL004-hum-5
B12: FTL004-hu-12 (antibody, human IgG1, kappa, V domains shown)
VH: B3 VH with A61N, Q65T, V68A, M70L, L83I, Y95F
VL: B9 VL with R24Q, S60T, L77F, F87I
notes: also called FLT004-hu-12; FTL004-hum-12
B13: FTL004-hu-10 (antibody, human IgG1, kappa, V domains shown)
VH: B3 VH
VL: B6 VL
notes: also called FLT004-hu-10; FTL004-hum-10
B14: FTL004-hu-18 (antibody, human IgG1, kappa, V domains shown)
VH: B4 VH
VL: B9 VL with R24Q, S60T, L77F, F87I
notes: also called FLT004-hu-18; FTL004-hum-18
B15: FTL004-hu-15 (antibody, human IgG1, kappa, V domains shown)
VH: B4 VH
VL: B6 VL
notes: also called FLT004-hu-15; FTL004-hum-15
B16: FTL004-hu-3 (antibody, human IgG1, kappa, V domains shown)
VH: B7 VH with A61N, G63K, Y95F
VL: B6 VL
notes: also called FLT004-hu-3; FTL004-hum-3
B17: FTL004-hu-14 (antibody, human IgG1, kappa, V domains shown)
VH: B4 VH with N61A, Q62E, T65Q, A68V, I83L, F95Y
VL: B3 VL
notes: also called FLT004-hu-14; FTL004-hum-14
B18: FTL004-hu-2 (antibody, human IgG1, kappa, V domains shown)
VH: B7 VH
VL: B3 VL
notes: also called FLT004-hu-2; FTL004-hum-2
B19: FTL004-6 (antibody, human IgG1, kappa)
heavy: not shown
light: B1 light
B20: FTL004-7 (antibody, human IgG1, kappa)
heavy: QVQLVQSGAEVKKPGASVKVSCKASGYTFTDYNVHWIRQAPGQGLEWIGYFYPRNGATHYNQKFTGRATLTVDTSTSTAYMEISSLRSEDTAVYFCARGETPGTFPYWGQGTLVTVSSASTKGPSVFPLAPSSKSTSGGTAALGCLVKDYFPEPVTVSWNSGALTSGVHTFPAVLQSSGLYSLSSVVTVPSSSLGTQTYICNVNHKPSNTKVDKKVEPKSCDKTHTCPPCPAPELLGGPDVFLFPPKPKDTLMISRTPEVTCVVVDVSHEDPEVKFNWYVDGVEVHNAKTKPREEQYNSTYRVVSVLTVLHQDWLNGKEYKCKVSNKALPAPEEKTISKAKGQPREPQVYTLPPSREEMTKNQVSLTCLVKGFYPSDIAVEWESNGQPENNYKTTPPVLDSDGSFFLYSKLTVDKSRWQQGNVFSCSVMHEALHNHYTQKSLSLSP
light: B2 light
notes: copies: 2 + 2

Positions count from the first letter of the chain named.

Chain of FcγRIIIa (V176) (P08637 17-208 F176V limits assumed): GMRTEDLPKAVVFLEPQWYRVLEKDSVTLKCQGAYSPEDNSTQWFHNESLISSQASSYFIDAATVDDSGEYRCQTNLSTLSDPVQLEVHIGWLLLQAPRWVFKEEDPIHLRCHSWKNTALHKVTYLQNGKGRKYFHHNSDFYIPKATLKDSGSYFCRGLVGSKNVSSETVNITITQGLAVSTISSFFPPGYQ

One assay deals with T1, recombinant extracellular domain of CD38 (human, UniProt P28907 43-300).
T1 construct: also called CD38 extracellular domain; AtaGenix ATMP00140HU
Kind of assay: Biacore SPR. (In general: SPR reads the build-up and loss of mass on a sensor chip optically.)
In the case of B1, the Kd – broadly, the concentration at which binding is half-saturated – was determined as 2.44 nM; the koff (commonly the first-order rate constant of dissociation) is 0.000677 s⁻¹; the kon (usually the rate constant with which the complex forms) stood at 277000 M⁻¹ s⁻¹.

For the molecule B2, the Kd stood at 2.4 nM, the koff was determined as 0.000766 s⁻¹ and the association rate constant (kon) turned out to be 320000 M⁻¹ s⁻¹.

Turning to B3, the Kd turned out to be 8.39 nM, the dissociation rate constant (koff) stood at 0.00257 s⁻¹ and the kon is 307000 M⁻¹ s⁻¹.

For B4, the dissociation constant (Kd) turned out to be 2.78 nM, the dissociation rate constant (koff) was 0.000853 s⁻¹ and the on-rate constant (kon) was 307000 M⁻¹ s⁻¹.

On to B5, for which the dissociation constant (Kd) worked out at 1.42 nM.

As to B6, the Kd was determined as 3.04 nM, the koff stood at 0.000699 s⁻¹ and the on-rate (kon) was 230000 M⁻¹ s⁻¹.

Turning to B7, the equilibrium dissociation constant (Kd) stood at 10.5 nM, the koff amounted to 0.00313 s⁻¹ and the on-rate (kon) came out at 297000 M⁻¹ s⁻¹.

As to B8, the Kd stood at 25.2 nM, the dissociation rate constant (koff) was determined as 0.00459 s⁻¹ and the kon turned out to be 182000 M⁻¹ s⁻¹.

As to B9, the dissociation constant Kd is 2.87 nM, the koff came to 0.000848 s⁻¹ and the kon is 296000 M⁻¹ s⁻¹.

As to B10, the Kd came to 3.09 nM, the dissociation rate constant (koff) was 0.000848 s⁻¹ and the kon is 275000 M⁻¹ s⁻¹.

With B11, the dissociation constant (Kd) stood at 1.65 nM, the dissociation rate constant (koff) was 0.000686 s⁻¹ and the kon was found to be 415000 M⁻¹ s⁻¹.

Consider B12, for which the Kd amounted to 3.54 nM, the koff was 0.00083 s⁻¹ and the kon amounted to 234000 M⁻¹ s⁻¹.

As to B13, the dissociation constant Kd worked out at 14.9 nM, the off-rate constant (koff) stood at 0.00241 s⁻¹ and the on-rate (kon) stood at 162000 M⁻¹ s⁻¹.

For the molecule B14, the equilibrium dissociation constant (Kd) was 4.16 nM, the off-rate (koff) stood at 0.000788 s⁻¹ and the kon was 189000 M⁻¹ s⁻¹.

Regarding B15, the Kd stood at 3.66 nM, the koff was 0.000784 s⁻¹ and the kon amounted to 214000 M⁻¹ s⁻¹.

As to B16, the Kd amounted to 1.5 nM, the off-rate constant (koff) was found to be 0.00052 s⁻¹ and the association rate constant (kon) is 347000 M⁻¹ s⁻¹.

As to B17, the Kd was found to be 22.4 nM, the koff came out at 0.00466 s⁻¹ and the on-rate (kon) came out at 208000 M⁻¹ s⁻¹.

For B18, the Kd is 8.3 nM, the koff was determined as 0.00285 s⁻¹ and the on-rate (kon) is 344000 M⁻¹ s⁻¹.

Another assay deals with CD38 on CD38-positive cells (human, UniProt P28907 1-300). The assay can be described thus: cell-based or functional assay.
Consider B1, for which the “Rate of apoptosis (%), Daudi cells” value turned out to be 29.3%; the “Rate of apoptosis (%), Raji cells” value was found to be 13.8%; the “Rate of apoptosis (%), Romas cells” value amounted to 63.6%; the “Rate of apoptosis (%), SU-DHL-6 cells” value worked out at 16.8%.

For the molecule B19, the “Rate of apoptosis (%), Daudi cells” value is 36%; the “Rate of apoptosis (%), Raji cells” value turned out to be 13.9%; the “Rate of apoptosis (%), Romas cells” value came out at 57%; the “Rate of apoptosis (%), SU-DHL-6 cells” value is 15.1%.

On to B2, for which the “Rate of apoptosis (%), Daudi cells” value was found to be 34.5%; the “Rate of apoptosis (%), Raji cells” value came out at 12.1%; the “Rate of apoptosis (%), Romas cells” value was 31.1%; the “Rate of apoptosis (%), SU-DHL-6 cells” value stood at 19.9%.

As to B20, the “Rate of apoptosis (%), Daudi cells” value is 37.4%; the “Rate of apoptosis (%), Raji cells” value came to 17.8%; the “Rate of apoptosis (%), Romas cells” value is 60.3%; the “Rate of apoptosis (%), SU-DHL-6 cells” value amounted to 20.3%.

For the molecule B5, the “Rate of apoptosis (%), Daudi cells” value was 36.9%; the “Rate of apoptosis (%), Raji cells” value came to 14.8%; the “Rate of apoptosis (%), Romas cells” value is 62.7%; the “Rate of apoptosis (%), SU-DHL-6 cells” value is 20.2%.

The next assay deals with FcγRIIIa(F176) (UniProt P08637 17-208, limits assumed). The assay can be described thus: kinetics, FcγRIIIa as ligand, antibody as analyte.
Chain of FcγRIIIa(F176) (P08637 17-208 limits assumed): as the sequence (P08637 17-208 F176V limits assumed) above, with V160F counted along it
On to B20, for which the Kd was determined as 22.7 nM, the koff came to 0.0136 s⁻¹ and the on-rate constant (kon) came to 599000 M⁻¹ s⁻¹.

A further assay concerns the target FcγRIIIa (V176) (UniProt P08637 17-208, limits assumed). Kind of assay: kinetics, FcγRIIIa as ligand, antibody as analyte.
The molecule B20 yielded a Kd of 36.9 nM, a koff of 0.021 s⁻¹ and an on-rate (kon) of 570000 M⁻¹ s⁻¹.

For the next assay, the target named is T2, human CD38 antigen protein (coated in ELISA) (human, UniProt P28907 43-300, limits assumed).
T2 construct: also called the antigen CD38; human antigen
Kind of assay: ELISA on coated CD38 antigen, OD (450 nm) against antibody concentration (ng/ml) [Plate3]. (An ELISA detects its analyte on a solid surface through an enzyme-linked reagent.)
For the molecule B13, the EC50 (read off the curve) (commonly the concentration giving half of the maximal effect) is roughly 0.3 µg/mL.

As for B17, the concentration for a half-maximal effect (EC50 (read off the curve)) was roughly 0.5 µg/mL.

The record behind these values is patent US20240400711A1 (SOUND BIOPHARMACEUTICALS, published 2024).
